Source: patent US6495673 (MEDICAL RESEARCH COUNCIL, dated 2002)
No end group written: not given here. *: point of attachment. Biotin = O=C1N[C@H]2[C@H](CS[C@H]2CCCCC(=O)*)N1

Key:
[1] = biological target: T1, GST-phage fusion FV7 (glutathione S-transferase displayed on phage without calmodulin, from vector pFV7) (S. japonica; filamentous phage, UniProt P08515 1-218 = GST; P69168 19-424); assay: phage ELISA on streptavidin plate with biotin-peptide
T1 construct: Any vector tags of pCANTAB6 are not described; also called non-specific phage; E-fd (GST)

[2] = biological target: Calmodulin-tagged phage DN323 (calmodulin displayed as a gene III fusion on filamentous phage, from phagemid … (filamentous phage, UniProt P0DP23 2-149)); assay: competition ELISA over time with 1000-fold excess of unlabeled peptide

T1 sequence (P08515 1-218, tags or fused parts left off): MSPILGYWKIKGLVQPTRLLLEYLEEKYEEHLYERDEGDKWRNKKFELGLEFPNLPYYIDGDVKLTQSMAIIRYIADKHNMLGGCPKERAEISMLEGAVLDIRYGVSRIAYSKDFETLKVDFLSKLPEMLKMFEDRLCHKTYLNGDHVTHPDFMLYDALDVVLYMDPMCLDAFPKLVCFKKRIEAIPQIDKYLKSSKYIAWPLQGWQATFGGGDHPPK

binding result [1]: no binding
koff [2]: < 0.1 s⁻¹
Binder: Biotin-CAAARWKKAFIAVSAANRFKKIS [biotin-labeled CAAARWKKAFIAVSAANRFKKIS peptide (SEQ ID NO: 15)]
